T1: desmoglein-1 (Homo sapiens (Human), UniProt Q02413 50-548)
T1 construct: also called DSG-1
T1 sequence: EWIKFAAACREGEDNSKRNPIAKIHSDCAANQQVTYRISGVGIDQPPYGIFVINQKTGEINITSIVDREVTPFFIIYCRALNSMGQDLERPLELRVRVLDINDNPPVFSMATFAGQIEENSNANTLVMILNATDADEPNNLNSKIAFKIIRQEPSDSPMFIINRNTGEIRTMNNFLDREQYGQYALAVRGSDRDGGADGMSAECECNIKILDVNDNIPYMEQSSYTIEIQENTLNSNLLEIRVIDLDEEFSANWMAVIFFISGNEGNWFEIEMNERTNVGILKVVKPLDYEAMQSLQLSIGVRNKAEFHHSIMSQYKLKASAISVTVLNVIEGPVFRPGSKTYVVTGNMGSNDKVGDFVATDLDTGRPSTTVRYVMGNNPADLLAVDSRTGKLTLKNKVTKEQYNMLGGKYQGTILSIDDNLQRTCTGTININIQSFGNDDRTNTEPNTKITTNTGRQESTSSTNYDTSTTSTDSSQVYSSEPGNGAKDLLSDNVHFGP

T2: desmoglein-2 (Homo sapiens (Human), UniProt Q14126 50-609)
T2 construct: also called DSG-2
T2 sequence: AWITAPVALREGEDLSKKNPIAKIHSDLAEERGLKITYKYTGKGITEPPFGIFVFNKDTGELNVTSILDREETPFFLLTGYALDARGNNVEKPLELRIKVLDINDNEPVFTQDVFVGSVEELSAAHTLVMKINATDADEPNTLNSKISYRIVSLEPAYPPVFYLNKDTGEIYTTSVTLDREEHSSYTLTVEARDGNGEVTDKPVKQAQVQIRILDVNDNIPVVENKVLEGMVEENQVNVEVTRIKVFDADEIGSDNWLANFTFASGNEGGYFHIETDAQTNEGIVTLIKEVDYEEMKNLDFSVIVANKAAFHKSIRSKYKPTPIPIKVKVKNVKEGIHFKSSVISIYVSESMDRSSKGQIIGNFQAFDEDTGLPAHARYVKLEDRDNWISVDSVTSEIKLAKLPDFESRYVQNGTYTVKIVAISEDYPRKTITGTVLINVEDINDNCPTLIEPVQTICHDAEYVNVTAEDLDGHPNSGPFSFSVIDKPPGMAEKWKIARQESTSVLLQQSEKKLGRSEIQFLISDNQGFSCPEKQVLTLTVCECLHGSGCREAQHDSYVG

T3: desmoglein-4 (Homo sapiens (Human), UniProt Q86SJ6 50-631)
T3 construct: also called DSG-4
T3 sequence: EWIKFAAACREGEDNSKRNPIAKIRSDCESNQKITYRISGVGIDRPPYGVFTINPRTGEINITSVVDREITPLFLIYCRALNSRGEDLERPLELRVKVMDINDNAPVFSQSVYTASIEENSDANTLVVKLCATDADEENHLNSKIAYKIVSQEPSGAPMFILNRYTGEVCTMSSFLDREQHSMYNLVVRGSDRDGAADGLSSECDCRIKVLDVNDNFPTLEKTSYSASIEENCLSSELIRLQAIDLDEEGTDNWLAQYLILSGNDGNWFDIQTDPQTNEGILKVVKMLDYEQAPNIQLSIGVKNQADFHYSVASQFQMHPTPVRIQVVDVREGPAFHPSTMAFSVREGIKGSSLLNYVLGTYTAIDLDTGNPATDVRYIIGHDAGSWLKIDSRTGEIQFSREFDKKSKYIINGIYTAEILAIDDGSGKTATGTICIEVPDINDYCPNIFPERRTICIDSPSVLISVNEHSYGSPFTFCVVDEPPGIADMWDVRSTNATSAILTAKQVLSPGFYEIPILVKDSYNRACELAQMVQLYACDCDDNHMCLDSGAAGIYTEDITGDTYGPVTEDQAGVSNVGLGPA

T4: human DSG-3 (human, UniProt P32926 50-615, limits assumed)
T4 construct: Soluble analyte (Octet) and plate coat (ELISA); also called hDSG-3
T4 sequence (looked up): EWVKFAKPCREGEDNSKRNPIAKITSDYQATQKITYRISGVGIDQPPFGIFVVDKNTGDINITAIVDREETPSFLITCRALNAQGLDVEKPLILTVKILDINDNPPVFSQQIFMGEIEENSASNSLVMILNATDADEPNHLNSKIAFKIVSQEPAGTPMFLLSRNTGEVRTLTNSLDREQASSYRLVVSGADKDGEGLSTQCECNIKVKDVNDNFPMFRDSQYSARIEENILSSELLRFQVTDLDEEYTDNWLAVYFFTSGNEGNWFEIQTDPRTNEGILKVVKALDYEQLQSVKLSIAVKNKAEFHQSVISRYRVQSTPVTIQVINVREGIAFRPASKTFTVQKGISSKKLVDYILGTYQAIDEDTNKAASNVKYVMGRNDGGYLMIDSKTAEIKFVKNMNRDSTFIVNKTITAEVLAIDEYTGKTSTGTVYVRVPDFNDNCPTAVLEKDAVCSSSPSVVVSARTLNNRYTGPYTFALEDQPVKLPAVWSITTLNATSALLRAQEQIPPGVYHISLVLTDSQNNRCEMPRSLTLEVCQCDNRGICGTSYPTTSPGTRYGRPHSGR

T5: human CD25 (human, UniProt P01589 22-213, limits assumed)
T5 construct: construct not described
T5 sequence (looked up): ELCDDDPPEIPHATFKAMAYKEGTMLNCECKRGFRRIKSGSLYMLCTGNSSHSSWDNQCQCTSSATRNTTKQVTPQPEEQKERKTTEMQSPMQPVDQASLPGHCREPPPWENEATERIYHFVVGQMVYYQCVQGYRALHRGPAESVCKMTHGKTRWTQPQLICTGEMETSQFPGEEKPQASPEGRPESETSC


How the values were obtained:
Insulin = target: T6, Insulin; experiment: ELISA, plate coated with insulin 5 ug/mL, test article at 100 nM, anti-human Fc-HRP detection
T6 construct: Plate coat in the polyreactivity ELISA

desmoglein-1 = target: T1, desmoglein-1; experiment: BLI (Octet), test article captured on anti-human Fc biosensors, desmoglein as analyte, 1:1 global fit
desmoglein-2 = target: T2, desmoglein-2; experiment: as above
desmoglein-4 = target: T3, desmoglein-4; experiment: as above
human DSG-3 [1] = target: T4, human DSG-3; experiment: as above
human DSG-3 [2] = target: T4, human DSG-3; experiment: bridging ELISA, plate coated with hDSG-3, test article at 1 nM, then his-tagged hCD25 1 ug/mL, anti-His-HRP detection
human DSG-3 [3] = target: T4, human DSG-3; experiment: bridging ELISA, plate coated with hDSG-3, test article at 10 nM, then his-tagged hCD25 1 ug/mL, anti-His-HRP detection
human DSG-3 [4] = target: T4, human DSG-3; experiment: bridging ELISA, plate coated with hDSG-3, test article at 100 nM, then his-tagged hCD25 1 ug/mL, anti-His-HRP detection
human CD25 = target: T5, human CD25; experiment: BLI (Octet), test article captured on anti-human Fc biosensors, 1:1 global fit (method text names desmogleins as analyte; result told for human CD25)

Insulin polyreactivity score (Insulin)	Kd (desmoglein-1) [nM]	Kd (desmoglein-2) [nM]	Kd (desmoglein-4) [nM]	Kd (human DSG-3 [1]) [nM]	absorbance (OD450 nm) (human DSG-3 [2])	absorbance (OD450 nm) (human DSG-3 [3])	absorbance (OD450 nm) (human DSG-3 [4])	Kd (human CD25) [nM]	Binder
2.2	13	4.2	10	19	0.31	0.78	1.3		IL2DSGAB1 (other, SD1 anti-desmoglein human IgG1 with the IL-2 mutein fused to the C-terminus of the heavy chain; copies: 2 + 2) heavy: QVQLQESGPGPVKPSGTLSLTCGVSGGSISSNHWWTWVRQPPGKGLEWIGEIYHNGSTFLNPSLKSRVTISVDKSNNQFSLKLTSVTAADTAVYYCARGWHRTGFRGYPSHWYFDLWGRGTLVSVSSASTKGPSVFPLAPSSKSTSGGTAALGCLVKDYFPEPVTVSWNSGALTSGVHTFPAVLQSSGLYSLSSVVTVPSSSLGTQTYICNVNHKPSNTKVDKKVEPKSCDKTHTCPPCPAPEAAGAPSVFLFPPKPKDTLMISRTPEVTCVVVDVSHEDPEVKFNWYVDGVEVHNAKTKPREEQYNSTYRVVSVLTVLHQDWLNGKEYKCKVSNKALPAPIEKTISKAKGQPREPQVYTLPPSREEMTKNQVSLTCLVKGFYPSDIAVEWESNGQPENNYKTTPPVLDSDGSFFLYSKLTVDKSRWQQGNVFSCSVMHEALHNHYTQKSLSLSPGGGGGSAPTSSSTKKTQLQLEHLLLDLQMILNGINNYKNPKLTRMLTFKFYMPKKATELKHLQCLEEELKPLEEALNLAPSKNFHLRPRDLISDINVIVLELKGSETTFMCEYADETATIVEFINRWITFSQSIISTLT light: not shown
					0.29	0.41	1	3.5	IL2DSGAB8 (other) heavy: QVQLVQSGGGVVQSGRSLRLSCAASGFTFSDYAMHWVRQAPGKGLEWVAVISHGGTKKYTGDSVKGRFIISRDNSKNTVFLQMNSLRVEDTAVYYCARDRVEGYVWGGTFDHWGQGTPVTVSSASTKGPSVFPLAPSSKSTSGGTAALGCLVKDYFPEPVTVSWNSGALTSGVHTFPAVLQSSGLYSLSSVVTVPSSSLGTQTYICNVNHKPSNTKVDKKVEPKSCDKTHTCPPCPAPEAAGAPSVFLFPPKPKDTLMISRTPEVTCVVVDVSHEDPEVKFNWYVDGVEVHNAKTKPREEQYNSTYRVVSVLTVLHQDWLNGKEYKCKVSNKALPAPIEKTISKAKGQPREPQVYTLPPSREEMTKNQVSLTCLVKGFYPSDIAVEWESNGQPENNYKTTPPVLDSDGSFFLYSKLTVDKSRWQQGNVFSCSVMHEALHNHYTQKSLSLSPG light: ELVLTQPPSVPVAPGQTANISCGGNNIGRQTVHWYQQKPGQAPVLVVFDDSDRPAGIPERFSGSNSGNTATLTISRVEAGDEADYYCQVWDSSSDHVVFGGGTQLTVLGQPKAAPSVTLFPPSSEELQANKATLVCLISDFYPGAVTVAWKADSSPVKAGVETTTPSKQSNNKYAASSYLSLTPEQWKSHRSYSCQVTHEGSTVEKTVAPTECSAEEEKAEEEKAEEEKAEEEKAPTSSSTKKTQLQLEHLLLDLQMILNGINNYKNPKLTRMLTFKFYMPKKATELKHLQCLEEELKPLEEALNLAPSKNFHLRPRDLISDINVIVLELKGSETTFMCEYADETATIVEFINRWITFSQSIISTLT
					0.27	0.483	0.965	3.4	IL2DSGAB5 (other, SD1 anti-desmoglein human IgG1 with the IL-2 mutein fused to the C-terminus of the light chain; also called TL2DSGAB5) heavy: QVQLQESGPGPVKPSGTLSLTCGVSGGSISSNHWWTWVRQPPGKGLEWIGEIYHNGSTFLNPSLKSRVTISVDKSNNQFSLKLTSVTAADTAVYYCARGWHRTGFRGYPSHWYFDLWGRGTLVSVSSASTKGPSVFPLAPSSKSTSGGTAALGCLVKDYFPEPVTVSWNSGALTSGVHTFPAVLQSSGLYSLSSVVTVPSSSLGTQTYICNVNHKPSNTKVDKKVEPKSCDKTHTCPPCPAPEAAGAPSVFLFPPKPKDTLMISRTPEVTCVVVDVSHEDPEVKFNWYVDGVEVHNAKTKPREEQYNSTYRVVSVLTVLHQDWLNGKEYKCKVSNKALPAPIEKTISKAKGQPREPQVYTLPPSREEMTKNQVSLTCLVKGFYPSDIAVEWESNGQPENNYKTTPPVLDSDGSFFLYSKLTVDKSRWQQGNVFSCSVMHEALHNHYTQKSLSLSPG light: not shown
